Measured values published in US20170306033A1 (Amgen, published 2017).

T1: human PAC1 receptor (human, UniProt P41586 21-468)
T1 sequence: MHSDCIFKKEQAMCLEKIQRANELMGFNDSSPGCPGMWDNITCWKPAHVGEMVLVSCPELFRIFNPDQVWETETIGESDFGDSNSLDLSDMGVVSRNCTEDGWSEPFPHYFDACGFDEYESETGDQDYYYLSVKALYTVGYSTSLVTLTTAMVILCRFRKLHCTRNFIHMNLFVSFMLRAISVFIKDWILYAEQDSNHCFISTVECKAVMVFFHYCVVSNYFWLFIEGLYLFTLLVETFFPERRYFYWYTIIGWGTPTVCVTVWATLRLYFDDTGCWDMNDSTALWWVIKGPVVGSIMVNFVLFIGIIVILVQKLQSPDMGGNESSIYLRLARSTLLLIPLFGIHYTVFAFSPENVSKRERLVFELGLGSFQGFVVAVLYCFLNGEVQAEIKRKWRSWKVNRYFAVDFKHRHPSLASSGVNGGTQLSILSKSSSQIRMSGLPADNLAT

B1: iPS:392528 (bispecific antibody, human IgG1, kappa, lambda, N297G)
light: QSVLTQPPSVSAAPGQKVTISCSGSSSNIGNNYVSWYQQLPGTAPKLLIYDNNKRPSGIPDRFSGSKSGTSTTLGITGLQTGDEADYYCGTWDSRLSAVVFGGGTKLTVLGQPKANPTVTLFPPSSEELQANKATLVCLISDFYPGAVTVAWKADGSPVKAGVETTKPSKQSNNKYAAKSYLSLTPEQWKSHRSYSCQVTHEGSTVEKTVAPTECS
heavy: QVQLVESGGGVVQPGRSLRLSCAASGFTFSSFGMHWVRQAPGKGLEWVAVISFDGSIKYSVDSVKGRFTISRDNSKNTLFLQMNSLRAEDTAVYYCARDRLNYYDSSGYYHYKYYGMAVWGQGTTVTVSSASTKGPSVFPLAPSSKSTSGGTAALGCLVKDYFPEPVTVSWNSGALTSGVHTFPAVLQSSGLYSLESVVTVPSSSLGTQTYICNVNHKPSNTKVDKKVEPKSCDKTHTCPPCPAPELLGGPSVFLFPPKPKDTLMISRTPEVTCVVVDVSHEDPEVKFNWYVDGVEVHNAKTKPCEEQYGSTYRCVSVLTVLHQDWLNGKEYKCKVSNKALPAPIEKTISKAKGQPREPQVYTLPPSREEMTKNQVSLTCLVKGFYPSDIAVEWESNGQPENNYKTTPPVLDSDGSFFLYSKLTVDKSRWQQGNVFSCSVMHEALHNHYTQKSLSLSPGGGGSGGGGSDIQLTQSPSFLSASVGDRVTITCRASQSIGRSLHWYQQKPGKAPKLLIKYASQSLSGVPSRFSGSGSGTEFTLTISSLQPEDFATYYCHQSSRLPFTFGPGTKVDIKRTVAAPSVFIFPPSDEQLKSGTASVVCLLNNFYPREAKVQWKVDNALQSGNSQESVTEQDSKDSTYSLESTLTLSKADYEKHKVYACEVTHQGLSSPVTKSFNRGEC
chain: QVQLVESGAEVVKPGASVKVSCKASGFTFSRFAMHWVRQAPGQGLEWMGVISYDGGNKYYAESVKGRVTMTRDTSTSTLYMELSSLRSEDTAVYYCARGYDVLTGYPDYWGQGTLVTVSSASTKGPSVFPLAPSSKSTSGGTAALGCLVKDYFPEPVTVSWNSGALTSGVHTFPAVLQSSGLYSLKSVVTVPSSSLGTQTYICNVNHKPSNTKVDKKV
B2: iPS:392535 (bispecific antibody, human IgG1, kappa, lambda, N297G)
light: QSVLTQPPSVSAAPGQKVTISCSGSSSNIGNNYVSWYQKLPGTAPKLLIYDNNKRPSGIPDRFSGSKSGTSTTLGITGLQTGDEADYYCGTWDSRLSAVVFGGGTKLTVLGQPKANPTVTLFPPSSEELQANKATLVCLISDFYPGAVTVAWKADGSPVKAGVETTKPSKQSNNKYAAKSYLSLTPEQWKSHRSYSCQVTHEGSTVEKTVAPTECS
heavy: not shown
chain: QVQLVESGAEVVKPGASVKVSCKASGFTFSRFAMHWVRKAPGQGLEWMGVISYDGGNKYYAESVKGRVTMTRDTSTSTLYMELSSLRSEDTAVYYCARGYDVLTGYPDYWGQGTLVTVSSASTKGPSVFPLAPSSKSTSGGTAALGCLVKDYFPEPVTVSWNSGALTSGVHTFPAVLQSSGLYSLKSVVTVPSSSLGTQTYICNVNHKPSNTKVDKKV
B3: iPS:392534 (bispecific antibody, human IgG1, kappa, lambda, N297G)
light: QSVLTQPPSVSAAPGQKVTISCSGSSSNIGNNYVSWYQKLPGTAPKLLIYDNNKRPSGIPDRFSGSKSGTSTTLGITGLQTGDEADYYCGTWDSRLSAVVFGGGTKLTVLGQPKANPTVTLFPPSSEELQANKATLVCLISDFYPGAVTVAWKADGSPVKAGVETTKPSKQSNNKYAAKSYLSLTPEQWKSHRSYSCQVTHEGSTVEKTVAPTECS
heavy: not shown
chain: QVQLVESGAEVVKPGASVKVSCKASGFTFSRFAMHWVRQAPGQGLEWMGVISYDGGNKYYAESVKGRVTMTRDTSTSTLYMELSSLRSEDTAVYYCARGYDVLTGYPDYWGQGTLVTVSSASTKGPSVFPLAPSSKSTSGGTAALGCLVKDYFPEPVTVSWNSGALTSGVHTFPAVLQSSGLYSLKSVVTVPSSSLGTQTYICNVNHKPSNTKVDKKV
B4: iPS:392533 (bispecific antibody, human IgG1, kappa, lambda, N297G)
light: QSVLTQPPSVSAAPGQKVTISCSGSSSNIGNNYVSWYQQLPGTAPKLLIYDNNKRPSGIPDRFSGSKSGTSTTLGITGLQTGDEADYYCGTWDSRLSAVVFGGGTKLTVLGQPKANPTVTLFPPSSEELQANKATLVCLISDFYPGAVTVAWKADGSPVKAGVETTKPSKQSNNKYAAKSYLSLTPEQWKSHRSYSCQVTHEGSTVEKTVAPTECS
heavy: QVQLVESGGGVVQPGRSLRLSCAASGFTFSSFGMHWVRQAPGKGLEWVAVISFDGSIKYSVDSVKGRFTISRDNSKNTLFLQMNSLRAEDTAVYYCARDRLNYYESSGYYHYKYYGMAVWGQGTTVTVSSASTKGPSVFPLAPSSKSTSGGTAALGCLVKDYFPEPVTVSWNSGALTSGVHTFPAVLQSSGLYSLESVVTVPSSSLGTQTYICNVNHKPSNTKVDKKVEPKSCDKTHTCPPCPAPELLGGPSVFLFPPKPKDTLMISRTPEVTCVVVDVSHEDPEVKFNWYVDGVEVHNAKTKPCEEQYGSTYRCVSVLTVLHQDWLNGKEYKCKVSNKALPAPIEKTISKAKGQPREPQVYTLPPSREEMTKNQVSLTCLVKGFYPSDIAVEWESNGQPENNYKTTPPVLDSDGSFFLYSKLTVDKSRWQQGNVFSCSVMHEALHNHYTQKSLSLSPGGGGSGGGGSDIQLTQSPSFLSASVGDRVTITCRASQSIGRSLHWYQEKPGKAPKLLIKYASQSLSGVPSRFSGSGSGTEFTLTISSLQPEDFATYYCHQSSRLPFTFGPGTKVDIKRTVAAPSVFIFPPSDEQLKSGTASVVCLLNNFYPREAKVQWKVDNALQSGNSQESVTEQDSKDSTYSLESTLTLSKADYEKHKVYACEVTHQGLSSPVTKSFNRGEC
chain: QVQLVESGAEVVKPGASVKVSCKASGFTFSRFAMHWVRKAPGQGLEWMGVISYDGGNKYYAESVKGRVTMTRDTSTSTLYMELSSLRSEDTAVYYCARGYDVLTGYPDYWGQGTLVTVSSASTKGPSVFPLAPSSKSTSGGTAALGCLVKDYFPEPVTVSWNSGALTSGVHTFPAVLQSSGLYSLKSVVTVPSSSLGTQTYICNVNHKPSNTKVDKKV
B5: iPS:392532 (bispecific antibody, human IgG1, kappa, lambda, N297G)
light: QSVLTQPPSVSAAPGQKVTISCSGSSSNIGNNYVSWYQQLPGTAPKLLIYDNNKRPSGIPDRFSGSKSGTSTTLGITGLQTGDEADYYCGTWDSRLSAVVFGGGTKLTVLGQPKANPTVTLFPPSSEELQANKATLVCLISDFYPGAVTVAWKADGSPVKAGVETTKPSKQSNNKYAAKSYLSLTPEQWKSHRSYSCQVTHEGSTVEKTVAPTECS
heavy: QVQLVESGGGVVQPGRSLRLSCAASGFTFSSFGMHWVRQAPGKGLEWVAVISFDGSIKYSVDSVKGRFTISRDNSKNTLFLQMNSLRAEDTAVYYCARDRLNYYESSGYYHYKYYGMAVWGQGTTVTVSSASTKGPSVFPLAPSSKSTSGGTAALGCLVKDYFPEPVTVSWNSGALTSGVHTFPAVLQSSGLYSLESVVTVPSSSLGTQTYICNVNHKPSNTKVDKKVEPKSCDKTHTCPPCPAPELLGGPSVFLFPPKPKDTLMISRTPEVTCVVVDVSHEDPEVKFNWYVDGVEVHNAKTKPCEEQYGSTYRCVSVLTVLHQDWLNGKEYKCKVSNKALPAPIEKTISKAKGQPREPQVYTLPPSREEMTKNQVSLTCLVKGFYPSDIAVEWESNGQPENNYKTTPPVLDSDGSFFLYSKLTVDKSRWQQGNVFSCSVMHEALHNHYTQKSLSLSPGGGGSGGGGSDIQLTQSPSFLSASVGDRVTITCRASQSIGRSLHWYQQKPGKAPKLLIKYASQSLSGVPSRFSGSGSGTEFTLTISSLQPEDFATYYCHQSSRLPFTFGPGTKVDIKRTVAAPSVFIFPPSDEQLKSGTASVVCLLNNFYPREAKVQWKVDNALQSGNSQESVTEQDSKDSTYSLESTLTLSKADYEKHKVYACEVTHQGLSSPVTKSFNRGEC
chain: QVQLVESGAEVVKPGASVKVSCKASGFTFSRFAMHWVRQAPGQGLEWMGVISYDGGNKYYAESVKGRVTMTRDTSTSTLYMELSSLRSEDTAVYYCARGYDVLTGYPDYWGQGTLVTVSSASTKGPSVFPLAPSSKSTSGGTAALGCLVKDYFPEPVTVSWNSGALTSGVHTFPAVLQSSGLYSLKSVVTVPSSSLGTQTYICNVNHKPSNTKVDKKV
B6: iPS:392531 (bispecific antibody, human IgG1, kappa, lambda, N297G)
light: QSVLTQPPSVSAAPGQKVTISCSGSSSNIGNNYVSWYQKLPGTAPKLLIYDNNKRPSGIPDRFSGSKSGTSTTLGITGLQTGDEADYYCGTWDSRLSAVVFGGGTKLTVLGQPKANPTVTLFPPSSEELQANKATLVCLISDFYPGAVTVAWKADGSPVKAGVETTKPSKQSNNKYAAKSYLSLTPEQWKSHRSYSCQVTHEGSTVEKTVAPTECS
heavy: not shown
chain: QVQLVESGAEVVKPGASVKVSCKASGFTFSRFAMHWVRKAPGQGLEWMGVISYDGGNKYYAESVKGRVTMTRDTSTSTLYMELSSLRSEDTAVYYCARGYDVLTGYPDYWGQGTLVTVSSASTKGPSVFPLAPSSKSTSGGTAALGCLVKDYFPEPVTVSWNSGALTSGVHTFPAVLQSSGLYSLKSVVTVPSSSLGTQTYICNVNHKPSNTKVDKKV
B7: iPS:392530 (bispecific antibody, human IgG1, kappa, lambda, N297G)
light: QSVLTQPPSVSAAPGQKVTISCSGSSSNIGNNYVSWYQKLPGTAPKLLIYDNNKRPSGIPDRFSGSKSGTSTTLGITGLQTGDEADYYCGTWDSRLSAVVFGGGTKLTVLGQPKANPTVTLFPPSSEELQANKATLVCLISDFYPGAVTVAWKADGSPVKAGVETTKPSKQSNNKYAAKSYLSLTPEQWKSHRSYSCQVTHEGSTVEKTVAPTECS
heavy: not shown
chain: QVQLVESGAEVVKPGASVKVSCKASGFTFSRFAMHWVRQAPGQGLEWMGVISYDGGNKYYAESVKGRVTMTRDTSTSTLYMELSSLRSEDTAVYYCARGYDVLTGYPDYWGQGTLVTVSSASTKGPSVFPLAPSSKSTSGGTAALGCLVKDYFPEPVTVSWNSGALTSGVHTFPAVLQSSGLYSLKSVVTVPSSSLGTQTYICNVNHKPSNTKVDKKV
B8: iPS:392529 (bispecific antibody, human IgG1, kappa, lambda, N297G)
light: QSVLTQPPSVSAAPGQKVTISCSGSSSNIGNNYVSWYQQLPGTAPKLLIYDNNKRPSGIPDRFSGSKSGTSTTLGITGLQTGDEADYYCGTWDSRLSAVVFGGGTKLTVLGQPKANPTVTLFPPSSEELQANKATLVCLISDFYPGAVTVAWKADGSPVKAGVETTKPSKQSNNKYAAKSYLSLTPEQWKSHRSYSCQVTHEGSTVEKTVAPTECS
heavy: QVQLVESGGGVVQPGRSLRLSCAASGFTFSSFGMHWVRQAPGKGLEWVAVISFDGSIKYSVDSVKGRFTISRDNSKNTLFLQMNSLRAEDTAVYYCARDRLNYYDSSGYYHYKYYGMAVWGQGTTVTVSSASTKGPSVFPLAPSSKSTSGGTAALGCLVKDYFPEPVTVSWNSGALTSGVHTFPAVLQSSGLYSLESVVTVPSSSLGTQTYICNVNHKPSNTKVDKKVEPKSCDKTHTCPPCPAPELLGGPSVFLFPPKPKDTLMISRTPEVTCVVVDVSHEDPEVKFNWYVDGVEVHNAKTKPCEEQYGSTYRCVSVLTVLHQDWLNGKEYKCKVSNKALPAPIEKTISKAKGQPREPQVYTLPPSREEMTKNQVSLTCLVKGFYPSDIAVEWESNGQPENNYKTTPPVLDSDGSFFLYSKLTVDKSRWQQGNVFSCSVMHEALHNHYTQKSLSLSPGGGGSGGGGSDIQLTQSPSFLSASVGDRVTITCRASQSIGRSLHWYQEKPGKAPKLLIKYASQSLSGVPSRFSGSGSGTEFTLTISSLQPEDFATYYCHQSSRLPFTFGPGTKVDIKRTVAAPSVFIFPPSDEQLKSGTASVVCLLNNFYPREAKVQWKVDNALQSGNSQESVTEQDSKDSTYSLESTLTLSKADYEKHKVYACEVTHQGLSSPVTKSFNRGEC
chain: QVQLVESGAEVVKPGASVKVSCKASGFTFSRFAMHWVRKAPGQGLEWMGVISYDGGNKYYAESVKGRVTMTRDTSTSTLYMELSSLRSEDTAVYYCARGYDVLTGYPDYWGQGTLVTVSSASTKGPSVFPLAPSSKSTSGGTAALGCLVKDYFPEPVTVSWNSGALTSGVHTFPAVLQSSGLYSLKSVVTVPSSSLGTQTYICNVNHKPSNTKVDKKV

How the values were obtained:
human CGRP receptor = human CGRP receptor (human, UniProt Q16602 23-461; O60894 27-148); test: cell-based or functional assay
Chain of human CGRP receptor (Q16602 23-461 limits assumed, chain 1 of 2): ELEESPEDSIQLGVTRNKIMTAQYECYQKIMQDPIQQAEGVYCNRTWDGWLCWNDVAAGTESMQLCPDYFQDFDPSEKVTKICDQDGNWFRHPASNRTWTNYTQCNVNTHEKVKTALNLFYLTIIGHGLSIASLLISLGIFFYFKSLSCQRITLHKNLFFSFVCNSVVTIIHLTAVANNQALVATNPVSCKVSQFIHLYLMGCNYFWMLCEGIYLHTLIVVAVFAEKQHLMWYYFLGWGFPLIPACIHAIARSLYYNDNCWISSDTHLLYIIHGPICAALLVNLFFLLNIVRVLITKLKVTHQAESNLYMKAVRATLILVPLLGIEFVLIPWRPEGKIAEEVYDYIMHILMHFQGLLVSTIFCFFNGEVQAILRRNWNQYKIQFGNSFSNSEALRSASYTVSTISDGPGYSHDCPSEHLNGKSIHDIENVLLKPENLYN
Chain of human CGRP receptor (O60894 27-148 limits assumed, chain 2 of 2): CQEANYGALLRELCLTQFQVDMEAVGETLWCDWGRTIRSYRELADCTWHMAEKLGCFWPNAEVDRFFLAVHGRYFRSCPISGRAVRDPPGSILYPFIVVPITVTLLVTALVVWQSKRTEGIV

human PAC1 receptor = biological target: T1, human PAC1 receptor; test: cell-based or functional assay

Binder	Human CGRP Receptor IC50 (human CGRP receptor) [nM]	Human PAC1 Receptor IC50 (human PAC1 receptor) [nM]
B1	0.55	> 1000
B2	0.41	365
B3	0.37	349
B4	0.59	206
B5	0.51	352
B6	0.42	> 1000
B7	0.38	> 1000
B8	0.56	> 1000
